Data published in the DeepSol protein solubility set.

Assay: soluble on expression in E. coli; label from the status in PepcDB or PDB records

Sequence	soluble on expression in E. coli
MDVSYLLDSLNDKQREAVAAPRSNLLVLAGAGSGKTRVLVHRIAWLMSVENCSPYSIMAVTFTNKAAAEMRHRIGQLMGTSQGGMWVGTFHGLAHRLLRAHHMDANLPQDFQILDSEDQLRLLKRLIKAMNLDEKQWPPRQAMWYINSQKDEGLRPHHIQSYGNPVEQTWQKVYQAYQEACDRAGLVDFAELLLRAHELWLNKPHILQHYRERFTNILVDEFQDTNNIQYAWIRLLAGDTGKVMIVGDDDQSIYGWRGAQVENIQRFLNDFPGAETIRLEQNYRSTSNILSAANALIENNNGRLGKKLWTDGADGEPISLYCAFNELDEARFVVNRIKTWQDNGGALAECAILYRSNAQSRVLEEALLQASMPYRIYGGMRFFERQEIKDALSYLRLIVNRNDDAAFERVVNTPTRGIGDRTLDVVRQTSRDRQLTLWQACRELLQEKALAGRAASALQRFMELIDALAQETADMPLHVQTDRVIKDSGLRTMYEQEKGEKGQTRIENLEELVTATRQFSYNEEDEDLMPLQAFLSHAALEAGEGQADTWQDAVQLMTLHSAKGLEFPQVFIVGMEEGMFPSQMSLDEGGRLEEERRLAYVGVTRAMQKLTLTYAETRRLYGKEVYHRPSRFIGELPEECVEEVRLRATVSRPVSHQRMGTPMVENDSGYKLGQRVRHAK	soluble
MSLKTFLESLKFPVQEVNKKSSGEKGPGRPPYWEMVFYWTRKPLVGARSVIAGALLPENVDENLFKAAVRLSSPTPHRENPQIPAEFAKYFEGKKLLDPFAGFGSIPLEGLRLGLDVTAVELLPTTYIFLKAVLEYPKKFGKSLVKDVERWGEWITEQLKNDPEIRELYDDDVAVYIGTWEIRCPHCGRWTPAIGNFWLARVKEGHHHHHH	soluble
SVLQVLHIPDERLRKVAKPVEEVNAEIQRIVDDMFETMYAEEGIGLAATQVDIHQRIIVIDVSENRDERLVLINPELLEKSGETGIEEGCLSIPEQRALVPRAEKVKIRALDRDGKPFELEADGLLAICIQHEMDHLVGKLFMDYLSPLKQQRIRQKVEKLDRLKARAPNSSSVDKLAAALEHHHHHH	soluble
MGSDKIHHHHHHMSILEVKNLSHGFGDRAIFEDVSFRLLKGEHIGLVGANGEGKSTFMSIVTGKMLPDEGKVEWSKYVTAGYLDQHSVLAERQSVRDVLRTAFDELFKAEARINDLYMKMAEDGADVDALMEEVGELQDRLESRDFYTLDAKIDEVARALGVMDFGMDTDVTSLSGGQRTKVLLAKLLLEKPDILLLDEPTNYLDAEHIDWLKRYLQNYENAFVLISHDIPFLNDVINIVYHVENQQLTRYSGDYYQFQEVYAMKKSQLEAAYERQQKEIADLKDFVARNKARVATRNMAMSRQKKLDKMDIIELQSEKPKPSFDFKPARTPGRFIFQAKNLQIGYDRPLTKPLNLTFERNQKVAIIGANGIGKTTLLKSLLGIISPIAGEVERGDYLELGYFEQEVEGGNRQTPLEAVWNAFPALNQAEVRAALARCGLTTKHIESQIQVLSGGEQAKVRFCLLMNRENNVLVLDEPTNHLDVDAKDELKRALKEYRGSILMVCHEPDFYEGWIDQIWDFNNLT	not soluble
MSHRNDSSRKHRKSRSIKNDQHYPTVSFDGAESVDIPADEGKSPVSTHLSLASNPTEFKFMDEIALLKRGRIDKDAPKHPYNRRGQQPMMKKEISVTSAHSNSSLPVRSPAIMTLMGGVPEAEKEYNVGKGGLLKISKMKEGGKRYEVSANERFTVFQQTAGQTCLFTFKA	not soluble
VQTGIDTLLPDYKKQLKGKRIGLITNPAGVNTSLKSSVDILYENPDIKLTALFGPEHGVRGDAQAGDEVGSYIDEKTGVPVYSLYGKTKKPTPEMLKNVDILMFDIQDVGTRFYTYIYTMAYAMEAAKENGIPFMVLDRPNPQGGNHIEGPILEPEYASFVGLYPIPLKHGMTIGELASLFNKEFSIDADLTVVKMKHWKRKMDFDDTRLPFVLPSPNMPTVESTFVYPATGLIEGTNISEGRGTTKPFELIGAPFIKSTELEETLNSLHLPGVTFRAASFTPTFSKHQGTLCHGVQLYVTDRDKFEAVKTGLSVIKTIHDLYPEDFEFLSTGSFDKLAGNGWIRTKIENGTSVENIINSYEKTLQQFSKTRKKYLIY	soluble
MPALSHGLSRFRGEAKPPGPSPRRSRESMAMDSKASMFTHGARPARIALFSGNYNYTLDGANKSLNRLVDHVQRTTGAQVRIYSPTSPTPAFAPVGELVSVPSVTIPFRRDYRLALGLPAAVRRDVEAFAPDLIHLSAPDLLGAAALKLGRRLKTPVVASLHTLFDSYLDYYGLGGLRALARRRLWQFYGACDFVMTPTPAIGEELRAQNLGVQVRTWARGVDADLFNPARRSADWRAAQGFDPDRPVIVFLGRLVMEKGLAAFADTIDRLAASGPSPQVLIIGDGPARAWFQERLPMATFAGFLTGEALATALASADIFLNPSTTETFGNVNLEAMASGLAIVCADAPNTRALLRDGRDAILCAPSDPASYAQALLSLCQDQNRLRRMGAKALDRSAAYRWTEILDEVVDIYAEALDARASAPSRAEVSPHELRARTGRRAGLIDAQAAALSTPLEHHHHHH	soluble
MSDDKKSLINIELLPKELITNLFGPATKSIGEGLGGIVNYVVGPLRKLNVVSEKSYIDFVEKINSKTDSIPVDNRDDSKLGFALKTMEDARYQLEDEDMREYFSNLLAGLVDNRKNQDSSPRFSIILSELTTIDANLLKKLYKLSITPTIKVRVQAPNGNGIDYIENLILTQKGIVENNFSDLSPSLQTLRSYGLIDIRPSIELTQKKHTKIYDDFENSTYFKTLKYNLNSFFANSSFFKDTGFSIISIRGSIHVTDLGFLFCSKIFSSEEE	not soluble
MGSDKIHHHHHHMLITAYRERQTRHREKIQRLLNFLKEETYSDFKILMLLFGFRDHKSLYSLLSKVEGMGLIKKHVLVSRTMKISLWGITSDGLAVVLTPDDAIFPARFEPSKITGWTLEHHLDNQVARITLEQKGASGWVNGDRTTFLSRYEVSHRPDGLITLPGGTVIAIETERRLKTKARYQSILASHLLARTRKNWIYVFYIVPDPQKKRGLERLFEGIRHVIINHQHIPLETRHRNVFRIYTLDELQRLNLGHCL	not soluble
SNAMHSDALSWGHGPRLFEVFLEPTCPFSVKAFFKLDDLLAQAGEDNVTVRIRLQSQPWHMFSGVIVRCILAAATLEGGKESAKAVMTAVASHREEFEFEHHAGGPNLDATPNDIIARIERYSGLALAEAFANPELEHAVKWHTKYARQNGIHVSPTFMINGLVQPGMSSGDPVSKWVSDIG	soluble
MGSDKIHHHHHHMTIDTSFNFKSDTPAEKDPDTWSPTLAAYHKLLWSKSLPNGRVFTLEYEKPPFYLRHRSDVGEFCLSSDTVVPSFRKKTIDGVAKDEMNFGGLGYTIGGMMVFPAIPIERKWTINQARGCNRKISDRFDLTVECIRRYYSDAQSPLDDVLRRYVDFFTLFRDFAGYVEFFHLQDVVNSDFTAVKFFLPFEDFEATSPIPQSRDAYLQYRSAAIDFLNARNQRIQNWVAKNIKG	not soluble
GSHMSQGSGEGEGVQLTAAQELMIQQLVAAQLQCNKRSFSDQPKVTPWPLGADPQSRDARQQRFAHFTELAIISVQEIVDFAKQVPGFLQLGREDQIALLKASTIEIMLLETARRYNHETECITFLKDFTYSKDDFHRAGLQVEFINPIFEFSRAMRRLGLDDAEYALLIAINIFSADRPNVQEPGRVEALQQPYVEALLSYTRIKRPQDQLRFPRMLMKLVSLRTLSSVHSEQVFALRLQDKKLPPLLSEIWDVHE	soluble
MRVFKTKLIRLQLTAEELDALTADFISYKRDGVLPDIFGRDALYDDSFTWPLIKFERVAHIHLANENNPFPPQLRQFSRTNDEAHLVYCQGAFDEQAWLLIAILKPEPHKLARDNNQMHKIGKMAEAFRMRF	soluble
MGSDKIHHHHHHMPFDDIQCSPLLVRDGTDNIMQVLSDTDKPTASAQRDMPQEFLPPRCTFSAEDWRILARQWYPVARSVDVKSSPVAVTLLDLELVTYRTPAGVHVARDLCPHRGVPLSMGCVEGDELVCAYHGLRYAADGQCRKIPAQPELKPSAKFRLTVFPAVERYGLVWTCLNPQGGEANLPPMPSWGDPLCQSILPPFVDIAGSAGRQVEGFVDVAHFAFVHHDAFADRNRPEVPMYQTEFTDFGLRTEYWSNVSNYPKALQHLAPDDFSWLRVYEIYPPFCARLTVHFPNEGRLNILNAASPVSARKTRLFVPITRNFDTTGSLDDVYAFNAQIFAEDQAIVERQRPEDLPLDMQAEAHFAADRTSVGYRRLLREMGLTMAYAG	not soluble
PEQEEEILGSDDDEQEDPNDYCKGGYHLVKIGDLFNGRYHVIRKLGWGHFSTVWLSWDIQGKKFVAMKVVKSAEHYTETALDEIRLLKSVRNSDPNDPNREMVVQLLDDFKISGVNGTHICMVFEVLGHHLLKWIIKSNYQGLPLPCVKKIIQQVLQGLDYLHTKCRIIHTDIKPENILLSVNEQYIRRLAAEATEWQRSGAPPPSGSAVSTAPATAGNFLVNPLEPKNAEKLKVKIADLGNACWVHKHFTEDIQTRQYRSLEVLIGSGYNTPADIWSTACMAFELATGDYLFEPHSGEEYTRDEDHIALIIELLGKVPRKLIVAGKYSKEFFTKKGDLKHITKLKPWGLFEVLVEKYEWSQEEAAGFTDFLLPMLELIPEKRATAAECLRHPWLNS	soluble
MTKERFVISRRRTGFGDCLWSLASAWSYAQRTGRTLVIDWRGSCYVEQPFSNAFPAFFEPVEDIAGVPVICDDRVNQLSFPGPFFPRWWNRPSIDCINRPDEQIFRERDELTELFQAREDSEANTIVCDACLMWRCSEEAERLIFRNIKLRSEIRARIDALYEEHFSGHSIIGVHVRHGNGEDIMEHAPYWADSELALHQVCMAIRKAKALSYPKPVKVFLCTDSAQVLDQVSGLFPDVFAVPKRFQADRAGPLHSAEMGIEGGASALIDMYLLARCATVIRFPPTSAFTRYARLLVPRIIEFDLSNPGHLTMIDNPYEHFAASHHHHHH	soluble
MGHHHHHHSHEEEGSPGGREDGFTAEHLAAEAMAADMDPWLVFDARTTPATELDAWLAKYPPSQVTRYGDPGSPNSEPVGWIAVYGQGYSPNSGDVQGLQAAWEALQTSGRPITPGTLRQLAITHHVLSGKWLMHLAPGFKLDHAWAGIARAVVEGRLQVAKVSPRAKEGGRQVICVYTDDFTDRLGVLEADSAIRAAGIKCLLTYKPDVYTYLGIYRANRWHLCPTLYESRFQLGGSARGSRVLDRANNVELT	soluble
MGSDKIHHHHHHMSLPGSKLEEARRLVNEKQYNEAEQVYLSLLDKDSSQSSAAAGASVDDKRRNEQETSILELGQLYVTMGAKDKLREFIPHSTEYMMQFAKSKTVKVLKTLIEKFEQVPDSLDDQIFVCEKSIEFAKREKRVFLKHSLSIKLATLHYQKKQYKDSLALINDLLREFKKLDDKPSLVDVHLLESKVYHKLRNLAKSKASLTAARTAANSIYCPTQTVAELDLMSGILHCEDKDYKTAFSYFFESFESYHNLTTHNSYEKACQVLKYMLLSKIMLNLIDDVKNILNAKYTKETYQSRGIDAMKAVAEAYNNRSLLDFNTALKQYEKELMGDELTRSHFNALYDTLLESNLCKIIEPFECVEISHISKIIGLDTQQVEGKLSQMILDKIFYGVLDQGNGWLYVYETPNQDATYDSALELVGQLNKVVDQLFEKASVLY	not soluble
MSLNAPRIIGVIVPDIVTHFFASILNGIENMAIDNGYFVIITTSHESFEHEKRNIENLVNMRVEGIIACLSQETTDFSHFAALKEINMPLILFDRVCLTDQFSSVIADGAQSAQMATQHLLDNGSKRVAFIGGANHLDIVKRRKHGYLEALRDNRIPIEKELVVCRKIDYEEGQIATETLLSLPQPPDAILAMNDTLAFAAMEVIKRHGLRIPDDIAIIGYTDEQHANYVEPKLSAVSHQTYKMGETACQLLIDQIKGDRTVKQVVIPTHLQIRESSIEGHHHHHH	soluble
